The supplement of paper PMC9170038

Tested on: MS2 coat protein
Assay: apparent KD of MS2 coat protein; designed switch direction (-1 OFF switch, 1 ON switch): -1; higher = weaker reporter binding
Outline: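 The buffer was Tris-HCl pH 7.5 with KCl, MgCl2, BSA, DTT, tRNA and Tween-20. In it, SNAP-549-labelled MS2 coat protein was titrated in doubling steps from 0.7 or 1.5 nM to 3 µM over chip-bound RNA switches transcribed by stalled E. coli RNA polymerase on Illumina chips. Apparent KD is the per-design median over clusters of curve fits to normalised fluorescence.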

[1] = input ligand: microRNA oligo, concentration not stated
[2] = Eterna round: R95, input ligand: microRNA oligo, concentration not stated
[3] = Eterna round: R95, input ligand: FMN 200 uM
[4] = Eterna round: R95, input ligand: none

| Sequence | apparent KD of MS2 coat protein (input ligand: FMN 200 uM) [nM] | apparent KD of MS2 coat protein (input ligand: none) [nM] | apparent KD of MS2 coat protein [1] [nM] | apparent KD of MS2 coat protein [2] [nM] | apparent KD of MS2 coat protein [3] [nM] | apparent KD of MS2 coat protein [4] [nM] |
| --- | --- | --- | --- | --- | --- | --- |
| UUGUGCACGCUGCGGUCCUACAUGAGGAUCACCCAUGUGGUCUGGUGGCGUGGGUCACCGGACUUGGCUCGUCUUGU [salish99_S_TOV1_R5_060] (Eterna round: R97, puzzle: Sensor, turn-off variant 1) | 36.2 | 42.3 | – | – | – | – |
| UAAUAAUAGCAAGGAUAUAGUUAUUAUAAUAUACUAGAAGGUGCACAUGAGGAUCACCCAUGUUUUAUAAUUUGUAAUUUAAAU [3rd something] (Eterna round: R96, puzzle: Exclusion NG 1) | – | – | 20.9 | – | – | – |
| CAGUACUGAGGAUAUACAUGAGGAUCACCCAUGUGUACCAGCUAGGAAACUAGCAAAAGUAGAAGGCAGUACUG [828 mod 2 m10] (Eterna round: R97, puzzle: Exclusion 3) | 32.6 | 14.9 | – | – | – | – |
| UCACGGGAUUGAGGAUAUAUUUAAAUUUUUACAAUAGAAGGCAAAUUUUUAGUUUUUUCACUUUACAUGAGGAUCACCCAUGUU [JR_ExcBG1_Sub082] (Eterna round: R96, puzzle: Exclusion NG 1) | – | – | 19.6 | – | – | – |
| CUUUUGUGAGGAUAUUAGUAGUAAAUAAAUAAAAUUACUACUGAGAAGGUACAUGAGGAUCACCCAUGUUCCUC [salish99_ex4_r3_044] (puzzle: Exclusion 4) | – | – | – | 15.8 | – | – |
| UGAGUGUUAGGAUAUCGCGGUUAGGCGAGUUGCUUAAUGAUCGAGAAGGGACAUGAGGAUCACCCAUGUGGGAC [Eternabot (L1) Solution 40] (Eterna round: R97, puzzle: Exclusion 4) | 127 | 112 | – | – | – | – |
| GGAUUCCAGUGAGGAUAUCCAAAUAAAAGCCAUGGAGAAGGCACAUGAGGAUCACCCAUGUAGGGCAAUAGCAGCGACCGCUGC [Usxeer] (Eterna round: R96, puzzle: Exclusion NG 1) | 60.8 | 35.1 | 20.7 | – | – | – |
| UAUUCACAAGCGAGAUCCCACAUGAGGAUCACCCAUGUGCUCGUCUUAUAAGGUACUGUGACGAAAGUCACGGUACC [Sensor 3, v1 - 91 v25] (Eterna round: R97, puzzle: Sensor, turn-off variant 1) | 19.9 | 20 | – | – | – | – |
| AUUUAGAGAGGAUAUAUUAUGUGAAACAUGAGGAUCACCCAUGUAAUAUGAUGGAUAUAAAUAGAAGGCUCAUUUA [Mat - Exclusion 5 - JL mod - D24] (puzzle: Exclusion 5) | – | – | – | 32.3 | – | – |
| GCAAGCUUUUUCAAUAAGAACAUGAGGAUCACCCAUGUUUAAGGUAUUACUUUUGGGCUCUUUAGUGCUAGUCUUAU [JR_STOV1_Sub036] (Eterna round: R97, puzzle: Sensor, turn-off variant 1) | 45.9 | 45.5 | – | – | – | – |
| UAUUAGUAAGGAUAUGAGCCGUAGGACGAAAGUCCUACGGCUCAGAAGGUACAUGAGGAUCACCCAUGUUUAUU [Mod of Fisker 6 - Jieux - Exclusion 4] (Eterna round: R97, puzzle: Exclusion 4) | 22.5 | 15.9 | – | – | – | – |
| GAAAAGGUAGGAUAUACGAAAAAAAAGGGUAGAGAAAAAACACAUGAGGAUCACCCAUGUAGAAGGACCAAAAG [salish99_ex2_r3_023] (puzzle: Exclusion 2) | – | – | – | 27.1 | 84.8 | 26.7 |
| CAGCUGUCAGGAUAUCGUGCAUACAACGAAAGUUCUAUGUGCGAGAAGGGACAUGAGGAUCACCCAUGUUAACG [Omei Ex4 A25] (Eterna round: R97, puzzle: Exclusion 4) | 58 | 46 | – | – | – | – |
| CCUUCCCGAGGAUAUACAUGAGGAUCACCCAUGUGAUCCUAAGGCUGAUCAAGCCUAUGUAGAAGGCGCAAAUC [salish99_ex3_r4_006] (Eterna round: R97, puzzle: Exclusion 3) | 35.1 | 38.4 | – | – | – | – |
| AGUAGGAGAGGAUAUACGAAGUCAAAAGACUUCAAUACUCAACAUGAGGAUCACCCAUGUAGAAGGCUCCUACA [Omei Ex2 BD A4] (Eterna round: R97, puzzle: Exclusion 2) | 22.9 | 19.4 | – | – | – | – |
| CAUUGUUACGGAGGAUAUCGUAUUGAGAUACUAUGAGAAGGCCGAAUAAACAUGAGGAUCACCCAUGUGAGACGGAUGCUUGUG [Ex NG1 #35] (Eterna round: R96, puzzle: Exclusion NG 1) | 33.1 | 18.9 | 14.9 | – | – | – |
| GAAAAGGUAGGAUAUACGGAAAAAAAGGGUAGAAAAAAAACACAUGAGGAUCACCCAUGUAGAAGGACCAAAAG [salish99_ex2_r3_030] (puzzle: Exclusion 2) | – | – | – | 32.5 | 60.9 | 27.4 |

| Sequence | apparent KD of MS2 coat protein (input ligand: FMN 200 uM) [nM] | apparent KD of MS2 coat protein (input ligand: none) [nM] | apparent KD of MS2 coat protein [1] [nM] | apparent KD of MS2 coat protein [2] [nM] | apparent KD of MS2 coat protein [3] [nM] | apparent KD of MS2 coat protein [4] [nM] |
| --- | --- | --- | --- | --- | --- | --- |
| ACUUGCGAUAUGCUCGUCUUAUUUUUGUUGACGUUCUAUACAUGAGGAUCACCCAUGUUUUGUUCCUUGUGCUGGUA [JR_SV3TOV2_Sub072] (puzzle: Sensor v3, turn-off variant 2) | – | – | – | 170 | 161 | 184 |
| GUUAAGGUAGGAUAUACGAGAAUAUAGGGUAGAUAUAUAACACAUGAGGAUCACCCAUGUAGAAGGACCAAUUG [Mat - Exclusion 2 - Mod of my Tesla design - D57] (puzzle: Exclusion 2) | – | – | – | 33.1 | – | – |
| GGUUGGCGAGGAUAUACAUGAGGAUCACCCAUGUGUGAGAAAAAAGUGAGGAAGAAAAGUAGAAGGCGCUGACG [salish99_ex3_r3_007] (puzzle: Exclusion 3) | – | – | – | 70.7 | 30.2 | 62.1 |
| AUCCAGCUAGGAUAUGCAGAGGCGAUCGCGGGCAUGUCCCAACAUGAGGAUCACCCAUGUAGAAGGAGCCAAGG [Eternabot (Original) Solution 48] (Eterna round: R97, puzzle: Exclusion 2) | 76.1 | 33.2 | – | – | – | – |
| CCUUACCGAGGAUAUACAUGAGGAUCACCCAUGUGAUCCUAAGGCUGAUCAAGCCUAUGUAGAAGGCGCAAAUC [salish99_ex3_r4_004] (Eterna round: R97, puzzle: Exclusion 3) | 160 | 130 | – | – | – | – |
| AACACGGCAGGAUAUACUUGAGGAUCACCCAAGUUGUUCGCAACAUAAAAUAACUCUUGUAGAAGGGCCAAAAG [Isorbi] (Eterna round: R97, puzzle: Exclusion 3) | 220 | 33.6 | – | – | – | – |
| GCGUAUGAGCAGGAUAUCCGACGGGAAUCCAAAGGAGAAGGGCUCACAUGAGGAUCACCCAUGUGGUCCAAAAC [Agediat] (puzzle: Exclusion 6) | – | – | – | 24 | 109 | 27.3 |
| CUCAGGUGAGGAUAUGCUUAAGGAUCGGUACACCGACACCUGUAGAAGGCACAUGAGGAUCACCCAUGUUAGGC [Eternabot (L1) Solution 68] (Eterna round: R97, puzzle: Exclusion 4) | 30.1 | 27.9 | – | – | – | – |
| GGUCAAGAACAGAACCGCGCUGCCCUUGACCGCUCAUUUACAUGAGGAUCACCCAUGUUUUUUGCUUGUCUUGUUAC [Qugeon] (puzzle: Sensor v3, turn-off variant 2) | – | – | – | 89.6 | 16.2 | 17.3 |
| CACCUGAAAGGAGGAUAUCUUACAUGAGGAUCACCCAUGUAAUAAAUGAGAAUUUCGAAUGUAAUAGAGAAGGCCUGAAAAGGC [Ostracism 85 - Jieux - Exclusion NG 2] (Eterna round: R96, puzzle: Exclusion NG 2) | 30.6 | 34.4 | 25 | – | – | – |
| GGAAUGUAAGGAUAUCCGAAAGGAAGGAGAGGGAGAGGGAAGGAGAAGGUACAUGAGGAUCACCCAUGUAAGGG [AK-MS2ROC-r4-exclusion4-9] (Eterna round: R97, puzzle: Exclusion 4) | 88.5 | 69.2 | – | – | – | – |
| CUUGUUUAUGUAGGAUAUGCCUGGCGUGCCUUUGCAGAAGGACAUGAGGAUCACCCAUGUAUUGCGGUCUGCGUUCAGAUCGCG [salish99_ExNG1_r4_043] (Eterna round: R96, puzzle: Exclusion NG 1) | 39 | 34.9 | 25.8 | – | – | – |
| GCGGAUUAUGUAGGAUAUCGGUCAGUUUCUGAUCGAGAAGGACAUGAGGAUCACCCAUGUAAAUUGCUCGCUUUGUGAGCCCGC [JL ENG1 3.63] (Eterna round: R96, puzzle: Exclusion NG 1) | 34.5 | 14.8 | 12.4 | – | – | – |
| AUAACAUGCUGGUGAUCAUACAUGAGGAUCACCCAUGUAACAAGCUUUUUGCUCGUCUUAUAAGAUCACCAGCAUGU [Stov1/9-A2] (Eterna round: R97, puzzle: Sensor, turn-off variant 1) | 14.8 | 15.4 | – | – | – | – |
| ACAUGUCAUUGAGGAUAUUGCACACAUGAGGAUCACCCAUGUAAACGGAUGCUCUUACGUGGGUUCGAGAAGGCGAUGUACAUU [Ex NG2 #94] (Eterna round: R96, puzzle: Exclusion NG 2) | 156 | 252 | 186 | – | – | – |
| CAGGGCGCAGGAUAUAUCACAAUGCACAUGAGGAUCACCCAUGUCAUCCUCGCGCUUGAGAUAGAAGGGUGAAACC [Eternabot (L1) Solution 65] (Eterna round: R97, puzzle: Exclusion 5) | 21.1 | 23.7 | – | – | – | – |
| GCUUGGCGAGGAUAUACAUGAGGAUCACCCAUGUGAGAAGAAUAAGUGAGGAAGAAAAGUAGAAGGCGCUGAGG [Mat - Exclusion 3 - Mod of Salish D62] (puzzle: Exclusion 3) | – | – | – | 30.4 | 56.1 | 37.6 |
